Results: US20250066503A1, “CELL INJURY INDUCING THERAPEUTIC DRUG FOR USE IN CANCER THERAPY” (CHUGAI SEIYAKU KABUSHIKI KAISHA, priority 2016, published 2025)
Each block holds one binder with its values, some of them ahead of it.

Target: T1, human GPC3 (human, UniProt P51654 25-563)
T1 construct: range 25-563; soluble analyte; also called soluble human GPC3; glypican 3
Assay: SPR

T1 sequence (P51654 25-563 limits assumed): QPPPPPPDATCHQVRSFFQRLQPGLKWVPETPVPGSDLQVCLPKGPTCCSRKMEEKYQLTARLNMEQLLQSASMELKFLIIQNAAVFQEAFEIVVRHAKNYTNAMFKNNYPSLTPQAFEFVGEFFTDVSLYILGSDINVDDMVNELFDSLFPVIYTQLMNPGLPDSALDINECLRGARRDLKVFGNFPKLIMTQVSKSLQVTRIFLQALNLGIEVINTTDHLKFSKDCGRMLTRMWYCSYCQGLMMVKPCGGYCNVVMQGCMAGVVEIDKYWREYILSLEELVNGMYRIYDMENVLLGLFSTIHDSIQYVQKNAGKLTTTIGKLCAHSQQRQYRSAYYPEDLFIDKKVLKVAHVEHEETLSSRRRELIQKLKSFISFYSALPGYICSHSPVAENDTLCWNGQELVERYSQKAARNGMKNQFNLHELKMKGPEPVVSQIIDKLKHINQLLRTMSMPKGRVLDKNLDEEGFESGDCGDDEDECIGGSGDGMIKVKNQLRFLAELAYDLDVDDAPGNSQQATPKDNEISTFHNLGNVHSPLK

B1: H0610-G1dh/none-Hi-Kn010G3/L0123-k0 (antibody, V domains shown)
VH: QVQLVQSGAEVKKPGASVKVSCKASGYTFTDYEMHWIRQPPGQGLEWIGAIDGKTPDTAYSQKFKGRVTLTADKSTSTAYMELSSLTSEDTAVYYCTRFYSYTYWGQGTLVTVSS
VL: DIVMTQSPLSLPVTPGEPASISCRSSQSLVHSNRNTYLHWYQQKPGQAPRLLIYKVSNRKSGVPDRFSGSGSGTDFTLKISRVEAEDVGVYYCGQGTQVPYTFGQGTKLEIK
notes: one-arm
Kd: 5.08 nM

B3: H0610-G1dh/none-Hi-Kn010G3/L0140-k0 (antibody, V domains shown)
VH: QVQLVQSGAEVKKPGASVKVSCKASGYTFTDYEMHWIRQPPGQGLEWIGAIDGKTPDTAYSQKFKGRVTLTADKSTSTAYMELSSLTSEDTAVYYCTRFYSYTYWGQGTLVTVSS
VL: DIVMTQSPLSLPVTPGEPASISCRSSQSLVHSNRNTYLHWYQQKPGQAPRLLIYKVSNRFLGVPDRFSGSGSGTDFTLKISRVEAEDVGVYYCGQGTQVPYTFGQGTKLEIK
notes: one-arm
Kd: 3.38 nM

B4: H0610-G1dh/none-Hi-Kn010G3/L0129-k0 (antibody, V domains shown)
VH: QVQLVQSGAEVKKPGASVKVSCKASGYTFTDYEMHWIRQPPGQGLEWIGAIDGKTPDTAYSQKFKGRVTLTADKSTSTAYMELSSLTSEDTAVYYCTRFYSYTYWGQGTLVTVSS
VL: DIVMTQSPLSLPVTPGEPASISCRSSQSLVHSNRNTYLHWYQQKPGQAPRLLIYKVSNRRSGVPDRFSGSGSGTDFTLKISRVEAEDVGVYYCGQGTQVPYTFGQGTKLEIK
notes: one-arm
Kd: 5.28 nM

B6: H0610-G1dh/none-Hi-Kn010G3/L0148-k0 (antibody, V domains shown)
VH: QVQLVQSGAEVKKPGASVKVSCKASGYTFTDYEMHWIRQPPGQGLEWIGAIDGKTPDTAYSQKFKGRVTLTADKSTSTAYMELSSLTSEDTAVYYCTRFYSYTYWGQGTLVTVSS
VL: DIVMTQSPLSLPVTPGEPASISCRSSQSLVHSNRNTYLHWYQQKPGQAPRLLIYKVSNRFWGVPDRFSGSGSGTDFTLKISRVEAEDVGVYYCGQGTQVPYTFGQGTKLEIK
notes: one-arm
Kd: 3.28 nM

B9: H0610-G1dh/none-Hi-Kn010G3/L0126-k0 (antibody, V domains shown)
VH: QVQLVQSGAEVKKPGASVKVSCKASGYTFTDYEMHWIRQPPGQGLEWIGAIDGKTPDTAYSQKFKGRVTLTADKSTSTAYMELSSLTSEDTAVYYCTRFYSYTYWGQGTLVTVSS
VL: DIVMTQSPLSLPVTPGEPASISCRSSQSLVHSNRNTYLHWYQQKPGQAPRLLIYKVSNRNSGVPDRFSGSGSGTDFTLKISRVEAEDVGVYYCGQGTQVPYTFGQGTKLEIK
notes: one-arm
Kd: 5.62 nM

B11: H0610-G1dh/none-Hi-Kn010G3/L0138-k0 (antibody, V domains shown)
VH: QVQLVQSGAEVKKPGASVKVSCKASGYTFTDYEMHWIRQPPGQGLEWIGAIDGKTPDTAYSQKFKGRVTLTADKSTSTAYMELSSLTSEDTAVYYCTRFYSYTYWGQGTLVTVSS
VL: DIVMTQSPLSLPVTPGEPASISCRSSQSLVHSNRNTYLHWYQQKPGQAPRLLIYKVSNRFHGVPDRFSGSGSGTDFTLKISRVEAEDVGVYYCGQGTQVPYTFGQGTKLEIK
notes: one-arm
Kd: 5.24 nM

B12: H0610-G1dh/none-Hi-Kn010G3/L0132-k0 (antibody, V domains shown)
VH: QVQLVQSGAEVKKPGASVKVSCKASGYTFTDYEMHWIRQPPGQGLEWIGAIDGKTPDTAYSQKFKGRVTLTADKSTSTAYMELSSLTSEDTAVYYCTRFYSYTYWGQGTLVTVSS
VL: DIVMTQSPLSLPVTPGEPASISCRSSQSLVHSNRNTYLHWYQQKPGQAPRLLIYKVSNRVSGVPDRFSGSGSGTDFTLKISRVEAEDVGVYYCGQGTQVPYTFGQGTKLEIK
notes: one-arm
Kd: 5.65 nM

B14: H0610-G1dh/none-Hi-Kn010G3/L0144-k0 (antibody, V domains shown)
VH: QVQLVQSGAEVKKPGASVKVSCKASGYTFTDYEMHWIRQPPGQGLEWIGAIDGKTPDTAYSQKFKGRVTLTADKSTSTAYMELSSLTSEDTAVYYCTRFYSYTYWGQGTLVTVSS
VL: DIVMTQSPLSLPVTPGEPASISCRSSQSLVHSNRNTYLHWYQQKPGQAPRLLIYKVSNRFQGVPDRFSGSGSGTDFTLKISRVEAEDVGVYYCGQGTQVPYTFGQGTKLEIK
notes: one-arm
Kd: 4.84 nM

B16: H0610-G1dh/none-Hi-Kn010G3/L0147-k0 (antibody, V domains shown)
VH: QVQLVQSGAEVKKPGASVKVSCKASGYTFTDYEMHWIRQPPGQGLEWIGAIDGKTPDTAYSQKFKGRVTLTADKSTSTAYMELSSLTSEDTAVYYCTRFYSYTYWGQGTLVTVSS
VL: DIVMTQSPLSLPVTPGEPASISCRSSQSLVHSNRNTYLHWYQQKPGQAPRLLIYKVSNRFVGVPDRFSGSGSGTDFTLKISRVEAEDVGVYYCGQGTQVPYTFGQGTKLEIK
notes: one-arm
Kd: 4.38 nM

B17: H0610-G1dh/none-Hi-Kn010G3/L0137-k0 (antibody, V domains shown)
VH: QVQLVQSGAEVKKPGASVKVSCKASGYTFTDYEMHWIRQPPGQGLEWIGAIDGKTPDTAYSQKFKGRVTLTADKSTSTAYMELSSLTSEDTAVYYCTRFYSYTYWGQGTLVTVSS
VL: DIVMTQSPLSLPVTPGEPASISCRSSQSLVHSNRNTYLHWYQQKPGQAPRLLIYKVSNRFGGVPDRFSGSGSGTDFTLKISRVEAEDVGVYYCGQGTQVPYTFGQGTKLEIK
notes: one-arm
Kd: 5.87 nM

B18: H0610-G1dh/none-Hi-Kn010G3/L0139-k0 (antibody, V domains shown)
VH: QVQLVQSGAEVKKPGASVKVSCKASGYTFTDYEMHWIRQPPGQGLEWIGAIDGKTPDTAYSQKFKGRVTLTADKSTSTAYMELSSLTSEDTAVYYCTRFYSYTYWGQGTLVTVSS
VL: DIVMTQSPLSLPVTPGEPASISCRSSQSLVHSNRNTYLHWYQQKPGQAPRLLIYKVSNRFIGVPDRFSGSGSGTDFTLKISRVEAEDVGVYYCGQGTQVPYTFGQGTKLEIK
notes: one-arm
Kd: 4.78 nM

B20: H0610-G1dh/none-Hi-Kn010G3/L0141-k0 (antibody, V domains shown)
VH: QVQLVQSGAEVKKPGASVKVSCKASGYTFTDYEMHWIRQPPGQGLEWIGAIDGKTPDTAYSQKFKGRVTLTADKSTSTAYMELSSLTSEDTAVYYCTRFYSYTYWGQGTLVTVSS
VL: DIVMTQSPLSLPVTPGEPASISCRSSQSLVHSNRNTYLHWYQQKPGQAPRLLIYKVSNRFMGVPDRFSGSGSGTDFTLKISRVEAEDVGVYYCGQGTQVPYTFGQGTKLEIK
notes: one-arm
Kd: 3.86 nM

B21: H0610-G1dh/none-Hi-Kn010G3/L0136-k0 (antibody, V domains shown)
VH: QVQLVQSGAEVKKPGASVKVSCKASGYTFTDYEMHWIRQPPGQGLEWIGAIDGKTPDTAYSQKFKGRVTLTADKSTSTAYMELSSLTSEDTAVYYCTRFYSYTYWGQGTLVTVSS
VL: DIVMTQSPLSLPVTPGEPASISCRSSQSLVHSNRNTYLHWYQQKPGQAPRLLIYKVSNRFFGVPDRFSGSGSGTDFTLKISRVEAEDVGVYYCGQGTQVPYTFGQGTKLEIK
notes: one-arm
Kd: 5.04 nM

B22: H0610-G1dh/none-Hi-Kn010G3/L0127-k0 (antibody, V domains shown)
VH: QVQLVQSGAEVKKPGASVKVSCKASGYTFTDYEMHWIRQPPGQGLEWIGAIDGKTPDTAYSQKFKGRVTLTADKSTSTAYMELSSLTSEDTAVYYCTRFYSYTYWGQGTLVTVSS
VL: DIVMTQSPLSLPVTPGEPASISCRSSQSLVHSNRNTYLHWYQQKPGQAPRLLIYKVSNRPSGVPDRFSGSGSGTDFTLKISRVEAEDVGVYYCGQGTQVPYTFGQGTKLEIK
notes: one-arm
Kd: 3.12 nM

Binders with a lower Kd, results first:

Kd: 0.972 nM
B2: H0610-G1dh/none-Hi-Kn010G3/L0124-k0 (antibody, V domains shown)
VH: QVQLVQSGAEVKKPGASVKVSCKASGYTFTDYEMHWIRQPPGQGLEWIGAIDGKTPDTAYSQKFKGRVTLTADKSTSTAYMELSSLTSEDTAVYYCTRFYSYTYWGQGTLVTVSS
VL: DIVMTQSPLSLPVTPGEPASISCRSSQSLVHSNRNTYLHWYQQKPGQAPRLLIYKVSNRLSGVPDRFSGSGSGTDFTLKISRVEAEDVGVYYCGQGTQVPYTFGQGTKLEIK
notes: one-arm

Kd: 1.71 nM
B5: H0610-G1dh/none-Hi-Kn010G3/L0125-k0 (antibody, V domains shown)
VH: QVQLVQSGAEVKKPGASVKVSCKASGYTFTDYEMHWIRQPPGQGLEWIGAIDGKTPDTAYSQKFKGRVTLTADKSTSTAYMELSSLTSEDTAVYYCTRFYSYTYWGQGTLVTVSS
VL: DIVMTQSPLSLPVTPGEPASISCRSSQSLVHSNRNTYLHWYQQKPGQAPRLLIYKVSNRMSGVPDRFSGSGSGTDFTLKISRVEAEDVGVYYCGQGTQVPYTFGQGTKLEIK
notes: one-arm

Kd: 2.66 nM
B7: H0610-G1dh/none-Hi-Kn010G3/L0145-k0 (antibody, V domains shown)
VH: QVQLVQSGAEVKKPGASVKVSCKASGYTFTDYEMHWIRQPPGQGLEWIGAIDGKTPDTAYSQKFKGRVTLTADKSTSTAYMELSSLTSEDTAVYYCTRFYSYTYWGQGTLVTVSS
VL: DIVMTQSPLSLPVTPGEPASISCRSSQSLVHSNRNTYLHWYQQKPGQAPRLLIYKVSNRFRGVPDRFSGSGSGTDFTLKISRVEAEDVGVYYCGQGTQVPYTFGQGTKLEIK
notes: one-arm

Kd: 2.36 nM
B8: H0610-G1dh/none-Hi-Kn010G3/L0152-k0 (antibody, V domains shown)
VH: QVQLVQSGAEVKKPGASVKVSCKASGYTFTDYEMHWIRQPPGQGLEWIGAIDGKTPDTAYSQKFKGRVTLTADKSTSTAYMELSSLTSEDTAVYYCTRFYSYTYWGQGTLVTVSS
VL: DIVMTQSPLSLPVTPGEPASISCRSSQSLVHSNRNTYLHWYQQKPGQAPRLLIYKVSNRFSGVPDRFSGSGSGTDFTLKISRVEAEDVGVYYCFQGTQVPYTFGQGTKLEIK
notes: one-arm

Kd: 0.573 nM
B10: H0610-G1dh/none-Hi-Kn010G3/L0143-k0 (antibody, V domains shown)
VH: QVQLVQSGAEVKKPGASVKVSCKASGYTFTDYEMHWIRQPPGQGLEWIGAIDGKTPDTAYSQKFKGRVTLTADKSTSTAYMELSSLTSEDTAVYYCTRFYSYTYWGQGTLVTVSS
VL: DIVMTQSPLSLPVTPGEPASISCRSSQSLVHSNRNTYLHWYQQKPGQAPRLLIYKVSNRFPGVPDRFSGSGSGTDFTLKISRVEAEDVGVYYCGQGTQVPYTFGQGTKLEIK
notes: one-arm

Kd: 2.53 nM
B13: H0610-G1dh/none-Hi-Kn010G3/L0134-k0 (antibody, V domains shown)
VH: QVQLVQSGAEVKKPGASVKVSCKASGYTFTDYEMHWIRQPPGQGLEWIGAIDGKTPDTAYSQKFKGRVTLTADKSTSTAYMELSSLTSEDTAVYYCTRFYSYTYWGQGTLVTVSS
VL: DIVMTQSPLSLPVTPGEPASISCRSSQSLVHSNRNTYLHWYQQKPGQAPRLLIYKVSNRYSGVPDRFSGSGSGTDFTLKISRVEAEDVGVYYCGQGTQVPYTFGQGTKLEIK
notes: one-arm

Kd: 1.25 nM
B15: H0610-G1dh/none-Hi-Kn010G3/L0151-k0 (antibody, V domains shown)
VH: QVQLVQSGAEVKKPGASVKVSCKASGYTFTDYEMHWIRQPPGQGLEWIGAIDGKTPDTAYSQKFKGRVTLTADKSTSTAYMELSSLTSEDTAVYYCTRFYSYTYWGQGTLVTVSS
VL: DIVMTQSPLSLPVTPGEPASISCRSSQSLVHSNRNTYLHWYQQKPGQAPRLLIYKVSNRFSGVPDRFSGSGSGTDFTLKISRVEAEDVGVYYCEQGTQVPYTFGQGTKLEIK
notes: one-arm

Kd: 2.16 nM
B19: H0610-G1dh/none-Hi-Kn010G3/L0149-k0 (antibody, V domains shown)
VH: QVQLVQSGAEVKKPGASVKVSCKASGYTFTDYEMHWIRQPPGQGLEWIGAIDGKTPDTAYSQKFKGRVTLTADKSTSTAYMELSSLTSEDTAVYYCTRFYSYTYWGQGTLVTVSS
VL: DIVMTQSPLSLPVTPGEPASISCRSSQSLVHSNRNTYLHWYQQKPGQAPRLLIYKVSNRFSGVPDRFSGSGSGTDFTLKISRVEAEDVGVYYCAQGTQVPYTFGQGTKLEIK
notes: one-arm
